Where “and” joins values, the source holds several entries; their conditions need not be identical. Identical values can stand only once.
Molecular target: F-actin (Sus scrofa)
Test: co-sedimentation

B1: titin N2A Ig80-IS-Ig81-Ig82-Ig83 (protein)
chain: SIRVVEKTTATFIAKVGGDPIPNVKWTKGKWRQLNQGGRILIHQKGDEAKLEIRDTTKTDSGLYRCVAFNKHGEIESNVNLQVDERKKQEKIEGDLRAMLKKTPALKKGSGEEEEIDIMELLKNVDPKEYEKYARMYGITDFRGLLQAFELLKQSQEEETHRLEIEELEKSERDEKEFEELVAFIQQRLTQTEPVTLIKDIENQTVLKDNDAIFEIDIKINYPEIKLSWYKGTEKLEPSNKYEISIDGDRHTLRVKNCQPKDQGNYRLVCGPHIASAKLTVIEPAWERHLQDVTLKEGQTCTMTCQFSVPNVKSEWFRNGRVLKPQGRVKTEVEHKVHKLTIADVRAEDQGQYTCKHEDLETSAELRIEAEPIQFTKRIQNIVVSEHQSATFECEVSFDDAIVTWYKGPTELTESQKYNFRNDGRCHYMTIHNVTPDDEGVYSVIARLEPRGEARSTAELYLTTKEIKLEMKPPDIPDSRVPIPTMPIRAVPPEEIPPAVAPSIPLLLPLP
Kd: ~17 µM and ~7 µM
